Experimental data published in patent US20090099029.

T1: Bovine, dephosphorylated, Myelin Basic Protein (MBP), P02687
T1 chain: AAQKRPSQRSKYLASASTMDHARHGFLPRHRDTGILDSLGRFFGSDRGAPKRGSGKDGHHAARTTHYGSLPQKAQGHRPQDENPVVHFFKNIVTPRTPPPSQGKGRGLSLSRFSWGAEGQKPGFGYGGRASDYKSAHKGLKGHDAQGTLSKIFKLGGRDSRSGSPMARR

B1: MERTK (protein)
chain: KRVQETKFGNAFTEEDSELVVNYIAKKSFCRRAIELTLHSLGVSEELQNKLEDVVIDRNLLILGKILGEGEFGSVMEGNLKQEDGTSLKVAVKTMKLDNSSQREIEEFLSEAACMKDFSHPNVIRLLGVCIEMSSQGIPKPMVILPFMKYGDLHTYLLYSRLETGPKHIPLQTLLKFMVDIALGMEYLSNRNFLHRDLAARNCMLRDDMTVCVADFGLSKKIYSGDYYRQGRIAKMPVKWIAIESLADRVYTSKSDVWAFGVTMWEIATRGMTPYPGVQNHEMYDYLLHGHRLKQPEDCLDELYEIMYSCWRTDPLDRPTFSVLRLQLEKLLESLPDVRNQADVIYVNTQLLESSEGLAQGSTLAPLDLNIDPDSIIASCTPRAAISVVTAEVHDSKPHEGRYILNGGSEEWEDLTSAPSAAVTAEKNSVLPGERLVRNGVSWSHSSMLPLGSSLPDELLFADDSSEGSEVLM
B2: IGF1R (protein)
chain: RKRNNSRLGNGVLYASVNPEYFSAADVYVPDEWEVAREKITMSRELGQGSFGMVYEGVAKGVVKDEPETRVAIKTVNEAASMRERIEFLNEASVMKEFNCHHVVRLLGVVSQGQPTLVIMELMTRGDLKSYLRSLRPEMENNPVLAPPSLSKMIQMAGEIADGMAYLNANKFVHRDLAARNCMVAEDFTVKIGDFGMTRDIYETDYYRKGGKGLLPVRWMSPESLKDGVFTTYSDVWSFGVVLWEIATLAEQPYQGLSNEQVLRFVMEGGLLDKPDNCPDMLFELMRMCWQYNPKMRPSFLEIISSIKEEMEPGFREVSFYYSEENKLPEPEELDLEPENMESVPLDPSASSSSLPLPDRHSGHKAENGPGPGVLVLRASFDERQPYAHMNGGRKNERALPLPQSSTC
B3: FLT3 (protein)
chain: HKYKKQFRYESQLQMVQVTGSSDNEYFYVDFREYEYDLKWEFPRENLEFGKVLGSGAFGKVMNATAYGISKTGVSIQVAVKMLKEKADSSEREALMSELKMMTQLGSHENIVNLLGACTLSGPIYLIFEYCCYGDLLNYLRSKREKFHRTWTEIFKEHNFSFYPTFQSHPNSSMPGSREVQIHPDSDQISGLHGNSFHSEDEIEYENQKRLEEEEDLNVLTFEDLLCFAYQVAKGMEFLEFKSCVHRDLAARNVLVTHGKVVKICDFGLARDIMSDSNYVVRGNARLPVKWMAPESLFEGIYTIKSDVWSYGILLWEIFSLGVNPYPGIPVDANFYKLIQNGFKMDQPFYATEEIYIIMQSCWAFDSRKRPSFPNLTSFLGCQLADAEEAMYQNVDGRVSECPHTYQNRRPFSREMDLGLLSPQAQVEDS
B4: INSRR (protein)
chain: YGKKRNRTLYASVNPEYFSASDMYVPDEWEVPREQISIIRELGQGSFGMVYEGLARGLEAGEESTPVALKTVNELASPRECIEFLKEASVMKAFKCHHVVRLLGVVSQGQPTLVIMELMTRGDLKSHLRSLRPEAENNPGLPQPALGEMIQMAGEIADGMAYLAANKFVHRDLAARNCMVSQDFTVKIGDFGMTRDVYETDYYRKGGKGLLPVRWMAPESLKDGIFTTHSDVWSFGVVLWEIVTLAEQPYQGLSNEQVLKFVMDGGVLEELEGCPLQLQELMSRCWQPNPRLRPSFTHILDSIQEELRPSFRLLSFYYSPECRGARGSLPTTDAEPDSSPTPRDCSPQNGGPGH
B5: KIT (protein)
chain: TYKYLQKPMYEVQWKVVEEINGNNYVYIDPTQLPYDHKWEFPRNRLSFGKTLGAGAFGKVVEATAYGLIKSDAAMTVAVKMLKPSAHLTEREALMSELKVLSYLGNHMNIVNLLGACTIGGPTLVITEYCCYGDLLNFLRRKRDSFICSKQEDHAEAALYKNLLHSKESSCSDSTNEYMDMKPGVSYVVPTKADKRRSVRIGSYIERDVTPAIMEDDELALDLEDLLSFSYQVAKGMAFLASKNCIHRDLAARNILLTHGRITKICDFGLARDIKNDSNYVVKGNARLPVKWMAPESIFNCVYTFESDVWSYGIFLWELFSLGSSPYPGMPVDSKFYKMIKEGFRMLSPEHAPAEMYDIMKTCWDADPLKRPTFKQIVQLIEKQISESTNHIYSNLANCSPNRQKPVVDHSVRINSVGSTASSSQPLLVHDDV

Target: T1, Bovine, dephosphorylated, Myelin Basic …

| Protein | MBP Kinase Activity |
| --- | --- |
| B1 | Strong |
| B2 | Strong |
| B3 | Strong |
| B4 | Negative |
| B5 | Negative |
